Experimental data taken from article PMC5518878, “Molecular assembly of rhodopsin with G protein-coupled receptor kinases” (Cell Research, 2017).

Experiments:
[1] = target: T1, Arrestin-biotin-MBP (human wild-type visual arrestin), purified (human, UniProt P10523 1-405, biotin on the tag); experiment: AlphaScreen or HTRF; biotinylated WT arrestin and His8-tagged 4M Rho, with 80 nM purified GRK1 and 40 μM ATP added (indirect kinase assay); details: both partners purified
T1 construct: human visual arrestin (arrestin1); also called WT arrestin; arrestin1; source: Sf9 insect cells, purified on amylose beads; not shown: biotin tag, C-terminal, kept

[2] = target: T2, β2-adrenergic receptor fused to a TEV cleavage site and tTA (human, UniProt P07550 1-413); experiment: Tango assay (TEV protease proximity reporter); HTL cells co-transfected with receptor-TEV cleavage site-tTA and GRK-TEV protease fusions; luciferase reporter; vehicle or ligand overnight (ATR 10 μM for rhodopsin; paroxetine; DHE 0.1 μM, GR 127935 1 μM; SX 1 μM, ICI 118 551 1 μM); DNA amounts adjusted for similar expression; details: partners not purified
T2 construct: human β2-adrenergic receptor; also called β2AR; source: HTL cells, transfected (pcDNA3), in cells; not shown: TEV cleavage site (ENLYFQS), C-terminal, kept

[3] = target: T3, serotonin receptor 5-HT1B fused to a TEV cleavage site and tTA (human, UniProt P28222 1-390); experiment: as above; details: partners not purified
T3 construct: human serotonin receptor 5-HT1B; also called HTR1b; source: HTL cells, transfected (pcDNA3), in cells; not shown: TEV cleavage site (ENLYFQS), C-terminal, kept

B1: H8-MBP-Rho (4M) phosphorylated by purified GRK1 with ATP (receptor, human, UniProt P08100 1-348, looked up)
chain: MCGTEGPNFYVPFSNATGVVRSPFEYPQYYLAEPWQFSMLAAYMFLLIVLGFPINFLTLYVTVQHKKLRTPLNYILLNLAVADLFMVLGGFTSTLYTSLHGYFVFGPTGCNLQGFFATLGGEIALWSLVVLAIERYVVVCKPMSNFRFGENHAIMGVAFTWVMALACAAPPLAGWSRYIPEGLQCSCGIDYYTLKPEVNNESFVIYMFVVHFTIPMIIIFFCYGQLVFTVKEAAAQQQESATTQKAEKEVTRMVIIYVIAFLICWVPYASVAFYIFTHQGSCFGPIFMTIPAFFAKSAAIYNPVIYIMMNKQFRNCMLTTICCGKNPLGDDEASATVSKTETSQVAPA
modifications: phosphorylated by GRK1; sites not stated
notes: human rhodopsin; also called GRK-phosphorylated Rho; source: HEK293S cells, purified on amylose beads; phosphorylated in the assay mixture by 80 nM purified GRK1 with 40 μM ATP; not shown: His8, N-terminal, kept
binding result [1]: binds

B2: bovine GRK2 fused to the N-terminus of TEV protease (enzyme, UniProt P21146 1-689, looked up)
chain: MADLEAVLADVSYLMAMEKSKATPAARASKKILLPEPSIRSVMQKYLEDRGEVTFEKIFSQKLGYLLFRDFCLKHLEEAKPLVEFYEEIKKYEKLETEEERLVCSREIFDTYIMKELLACSHPFSKSAIEHVQGHLVKKQVPPDLFQPYIEEICQNLRGDVFQKFIESDKFTRFCQWKNVELNIHLTMNDFSVHRIIGRGGFGEVYGCRKADTGKMYAMKCLDKKRIKMKQGETLALNERIMLSLVSTGDCPFIVCMSYAFHTPDKLSFILDLMNGGDLHYHLSQHGVFSEADMRFYAAEIILGLEHMHNRFVVYRDLKPANILLDEHGHVRISDLGLACDFSKKKPHASVGTHGYMAPEVLQKGVAYDSSADWFSLGCMLFKLLRGHSPFRQHKTKDKHEIDRMTLTMAVELPDSFSPELRSLLEGLLQRDVNRRLGCLGRGAQEVKESPFFRSLDWQMVFLQKYPPPLIPPRGEVNAADAFDIGSFDEEDTKGIKLLDSDQELYRNFPLTISERWQQEVAETVFDTINAETDRLEARKKTKNKQLGHEEDYALGKDCIMHGYMSKMGNPFLTQWQRRYFYLFPNRLEWRGEGEAPQSLLTMEEIQSVEETQIKERKCLLLKIRGGKQFVLQCDSDPELVQWKKELRDAYREAQQLVQRVPKMKNKPRSPVVELSKVPLIQRGSANGL
notes: bovine GRK2; source: HTL cells, transfected (pcDNA3), in cells; not shown: HA or FLAG, C-terminal, kept; TEV protease, C-terminal, kept
fold induction by the agonist salmeterol xinafoate over the vehicle control [2]: 2 fold | fold induction by the agonist dihydroergotamine over the vehicle control [3]: 2.5 fold
